Reference: US6812210B2, “Urocortin-III and uses thereof” (priority 2001, dated 2004)
Positions count from the first letter of the chain named. Where no end group is shown, it is not given here.

How the values were obtained:
[1] = target: T1, CRF binding protein (CRF-BP) (Homo sapiens, UniProt P24387); assay: Binding to CRF binding protein by displacement of [D-125I-Tyr0]-hCRF; conditions: data not shown
T1 sequence (P24387 25-322): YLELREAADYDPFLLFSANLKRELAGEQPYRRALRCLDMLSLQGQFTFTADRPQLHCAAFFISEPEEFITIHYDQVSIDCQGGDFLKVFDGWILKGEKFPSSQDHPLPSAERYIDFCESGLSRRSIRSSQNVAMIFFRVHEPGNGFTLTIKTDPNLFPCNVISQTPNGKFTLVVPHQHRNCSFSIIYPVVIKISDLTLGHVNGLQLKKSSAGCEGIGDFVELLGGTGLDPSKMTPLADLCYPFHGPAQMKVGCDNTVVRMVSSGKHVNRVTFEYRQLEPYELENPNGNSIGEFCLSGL

rats = assay: Intravenous Ucn III in rats: glucagon secretion and blood sugar; assay type: in vivo, rat; conditions: given intravenously to rats
Description: It has been shown by others that glucagon can act directly on the beta cell to stimulate insulin secretion in a paracrine manner. Thus, Ucn III may provide a means for the beta cell to signal the alpha cell, which produces glucagon which would then, in turn, drive the beta cell. Thus, Ucn III (or any CRF-R2 agonist) may be used to stimulate and sustain islet functions.

CRF-R1 = target: T2, CRF-R1 (Rattus norvegicus, UniProt P35353); assay: cAMP accumulation in primary rat anterior pituitary cells expressing endogenous CRF-R1; assay type: cell-based; conditions: FIG. 3B; Ucn III even at concentrations >1 μM
T2 construct: cells expressing endogenous CRF-R1 (cultured primary anterior pituitary cells, (5)) or CRF-R2β (A7r5 cells, (27)); endogenous in cells; host or cells: primary rat anterior pituitary cells in culture
T2 sequence (P35353 24-415): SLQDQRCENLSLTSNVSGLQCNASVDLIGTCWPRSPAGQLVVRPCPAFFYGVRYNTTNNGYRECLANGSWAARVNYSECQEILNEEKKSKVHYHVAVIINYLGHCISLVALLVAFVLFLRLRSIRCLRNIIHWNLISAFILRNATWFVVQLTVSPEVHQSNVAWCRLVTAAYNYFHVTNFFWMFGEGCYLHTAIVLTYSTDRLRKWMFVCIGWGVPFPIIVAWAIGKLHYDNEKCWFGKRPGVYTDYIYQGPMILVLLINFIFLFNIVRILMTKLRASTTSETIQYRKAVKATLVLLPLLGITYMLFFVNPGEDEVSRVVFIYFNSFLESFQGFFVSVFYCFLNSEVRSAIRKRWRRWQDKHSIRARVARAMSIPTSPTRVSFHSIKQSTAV
Description: The abilities of Ucn II and Ucn III to activate adenylate cyclase in cells expressing endogenous CRF-R1 (cultured primary anterior pituitary cells, (5)) or CRF-R2β (A7r5 cells, (27)). Rat aortic smooth muscle cells, A7r5, were plated into 48-well culture dishes and allowed to recover for 48 h. Cells were starved in DMEM/0.2% FBS overnight before the experiment. The cells were preincubated with 0.1 mM 3-isobutyl-1-methylxanthine for 30 min and then exposed to peptides for 20 min at 37° C. Rat anterior pituitary cells were established in culture (28) and treated with test peptides for 45 min at 37° C. Intracellular cAMP was extracted from all cells and measured from triplicate wells using a radioimmunoassay kit (Biomedical Technologies). Potencies were determined using the PRISM […].

hCRF-R1 = target: T3, hCRF-R1 (Homo sapiens, UniProt P34998); assay: cAMP accumulation in CHO cells stably expressing hCRF-R1; assay type: cell-based; conditions: 1 μM
T3 construct: expressed in transfected cells
T3 sequence (P34998 24-415): T2 sequence (P35353 24-415) with R6H, N9S, T13A, V16I, V153M, A163G, V209I, H229Y, R356H
Description: The medium was changed at least 2 h before treatments to DMEM/0.1% FBS. The cells were preincubated with 0.1 mM 3-isobutyl-1-methylxanthine for 30 min and then exposed to peptides for 20 min at 37° C.

Ability to increase cyclic AMP in cultured pituitary cells expressing CRF-R1 (CRF-R1) | Activation of CRF-R1 (cAMP) at very high doses (hCRF-R1) | Substance | Affinity for CRF-BP [1] | Glucagon secretion (rats) | Blood sugar levels (rats; subsequent to glucagon rise)
inactive | no activation | urocortin III (FTLSLDVPTNIMNLLFNIAKAKNLRAQAAANAHLMAQI; ends and bridges not checked; UniProt Q969E3 120-157, looked up) [Ucn III, urocortin III, species (human or mouse) not specified at the place] | neither Ucn II nor Ucn III exhibit appreciable affinity | rapidly stimulated glucagon secretion | elevates blood sugar levels
– | – | urocortin [Urocortin (rat)] | subnanomolar | – | –
low potency | – | urocortin II (IVLSLDVPIGLLQILLEQARARAAREQATTNARILARVGHC; ends and bridges not checked; UniProt Q96RP3 72-112, looked up) [Ucn II, urocortin II, species (human or mouse) not specified at the place, reference compound] | neither Ucn II nor Ucn III exhibit appreciable affinity | – | –
